From publication PMC7110113, “Termination of non‐coding transcription in yeast relies on both an RNA Pol II CTD interaction domain and a CTD‐mimicking region in Sen1” (The EMBO Journal, 2020)

B1: Nrd1 CID [S. cerevisiae] / Sen1 NIM peptide, FAM-labelled [modified: 5,6-carboxyfluorescein (FAM) on the N-terminus; 5,6-carboxyfluorescein (FAM) on the N-terminus] [S. cerevisiae] (parent complex)
chain 1: MQQDDDFQNFVATLESFKDLKSGISGSRIKKLTTYALDHIDIESKIISLIIDYSRLCPDSHKLGSLYIIDSIGRAYLDETRSNSNSSSNKPGTCAHAINTLGEVIQELLSDAIAKSNQDHKEKIRMLLDIWDRSGLFQKSYLNAIRSKCFAMD
chain 2: DDDEDDYTPSIS

Variants of: B1
Test: fluorescence anisotropy (FA); parent: 1.2e+03 nM

Q: For chain 1 MQQDDDFQNFVATLESFKDLKSGISGSRIKKLTTYALDHIDIESKIISLIIDYSRLCPDSHKLGSLYIIDSIGRAYLDETRSNSNSSSNKPGTCAHAINTLGEVIQELLSDAIAKSNQDHKEKIRMLLDAWDRSGLFQKSYLNAIRSKCFAMD [chain 1 I130A], which Kd is on record?
A: 7.38 µM
